Results on 21 molecules are retold here after patent US20240117334A1, “FACTOR B PROTEASES” (Vertex Pharmaceuticals Incorporated, priority 2021, published 2024).

First the molecules themselves.
B1: chymase C22S/P38Q/K40V/F41R/L99H/V138I/F173M/D175N/A190S/V213A/S218T/A226R (enzyme)
chain: IIGGTESKPHSRPYMAYLEIVTSNGQSVRCGGFLIRRNFVLTAAHCAGRSITVTLGAHNITEEEDTWQKLEVIKQFRHPKYNTSTHHHDIMLLKLKEKASLTLAVGTLPFPSQFNFVPPGRMCRIAGWGRTGVLKPGSDTLQEVKLRLMDPQACSHMRNFDHNLQLCVGNPRKTKSSFKGDSGGPLLCAGVAQGIASYGRTDAKPPRVFTRISHYRPWINQILQAN
B2: chymase C22S/P38Q/K40A/F41R/L99H/V138I/F173Y/D175N/A190S/V213A/S218L/A226R (enzyme)
chain: IIGGTESKPHSRPYMAYLEIVTSNGQSARCGGFLIRRNFVLTAAHCAGRSITVTLGAHNITEEEDTWQKLEVIKQFRHPKYNTSTHHHDIMLLKLKEKASLTLAVGTLPFPSQFNFVPPGRMCRIAGWGRTGVLKPGSDTLQEVKLRLMDPQACSHYRNFDHNLQLCVGNPRKTKSSFKGDSGGPLLCAGVAQGIASYGRLDAKPPRVFTRISHYRPWINQILQAN
B3: chymase C22S/P38Q/K40L/F41R/L99F/V138I/F173L/D175N/A190S/V213A/A226R (enzyme)
chain: IIGGTESKPHSRPYMAYLEIVTSNGQSLRCGGFLIRRNFVLTAAHCAGRSITVTLGAHNITEEEDTWQKLEVIKQFRHPKYNTSTFHHDIMLLKLKEKASLTLAVGTLPFPSQFNFVPPGRMCRIAGWGRTGVLKPGSDTLQEVKLRLMDPQACSHLRNFDHNLQLCVGNPRKTKSSFKGDSGGPLLCAGVAQGIASYGRSDAKPPRVFTRISHYRPWINQILQAN
B4: chymase C22S/P38Q/K40A/F41R/L99H/V138I/F173M/D175T/A190S/V213A/S218I/A226R (enzyme)
chain: IIGGTESKPHSRPYMAYLEIVTSNGQSARCGGFLIRRNFVLTAAHCAGRSITVTLGAHNITEEEDTWQKLEVIKQFRHPKYNTSTHHHDIMLLKLKEKASLTLAVGTLPFPSQFNFVPPGRMCRIAGWGRTGVLKPGSDTLQEVKLRLMDPQACSHMRTFDHNLQLCVGNPRKTKSSFKGDSGGPLLCAGVAQGIASYGRIDAKPPRVFTRISHYRPWINQILQAN
B5: chymase C22S/P38Q/K40L/F41R/V138I/F173Y/D175H/A190S/V213A/S218T/A226R (enzyme)
chain: IIGGTESKPHSRPYMAYLEIVTSNGQSLRCGGFLIRRNFVLTAAHCAGRSITVTLGAHNITEEEDTWQKLEVIKQFRHPKYNTSTLHHDIMLLKLKEKASLTLAVGTLPFPSQFNFVPPGRMCRIAGWGRTGVLKPGSDTLQEVKLRLMDPQACSHYRHFDHNLQLCVGNPRKTKSSFKGDSGGPLLCAGVAQGIASYGRTDAKPPRVFTRISHYRPWINQILQAN
B6: chymase C22S/P38Q/K40I/F41R/L99N/V138I/D175T/A190S/V213A/S218V/A226R (enzyme)
chain: IIGGTESKPHSRPYMAYLEIVTSNGQSIRCGGFLIRRNFVLTAAHCAGRSITVTLGAHNITEEEDTWQKLEVIKQFRHPKYNTSTNHHDIMLLKLKEKASLTLAVGTLPFPSQFNFVPPGRMCRIAGWGRTGVLKPGSDTLQEVKLRLMDPQACSHFRTFDHNLQLCVGNPRKTKSSFKGDSGGPLLCAGVAQGIASYGRVDAKPPRVFTRISHYRPWINQILQAN
B7: chymase C22S/P38Q/K40A/F41R/L99H/V138I/F173Y/D175N/A190S/V213A/S218I/A226R (enzyme)
chain: IIGGTESKPHSRPYMAYLEIVTSNGQSARCGGFLIRRNFVLTAAHCAGRSITVTLGAHNITEEEDTWQKLEVIKQFRHPKYNTSTHHHDIMLLKLKEKASLTLAVGTLPFPSQFNFVPPGRMCRIAGWGRTGVLKPGSDTLQEVKLRLMDPQACSHYRNFDHNLQLCVGNPRKTKSSFKGDSGGPLLCAGVAQGIASYGRIDAKPPRVFTRISHYRPWINQILQAN
B8: chymase C22S/P38Q/K40M/F41R/L99H/V138I/D175Q/A190S/V213A/S218V/A226R (enzyme)
chain: IIGGTESKPHSRPYMAYLEIVTSNGQSMRCGGFLIRRNFVLTAAHCAGRSITVTLGAHNITEEEDTWQKLEVIKQFRHPKYNTSTHHHDIMLLKLKEKASLTLAVGTLPFPSQFNFVPPGRMCRIAGWGRTGVLKPGSDTLQEVKLRLMDPQACSHFRQFDHNLQLCVGNPRKTKSSFKGDSGGPLLCAGVAQGIASYGRVDAKPPRVFTRISHYRPWINQILQAN
B9: chymase C22S/P38Q/K40Q/F41R/V138I/F173Y/D175N/A190S/V213A/S218V/A226R (enzyme)
chain: IIGGTESKPHSRPYMAYLEIVTSNGQSQRCGGFLIRRNFVLTAAHCAGRSITVTLGAHNITEEEDTWQKLEVIKQFRHPKYNTSTLHHDIMLLKLKEKASLTLAVGTLPFPSQFNFVPPGRMCRIAGWGRTGVLKPGSDTLQEVKLRLMDPQACSHYRNFDHNLQLCVGNPRKTKSSFKGDSGGPLLCAGVAQGIASYGRVDAKPPRVFTRISHYRPWINQILQAN
B10: chymase C22S/P38Q/K40M/F41H/L99H/V138I/D175S/A190S/V213A/S218V/A226R (enzyme)
chain: IIGGTESKPHSRPYMAYLEIVTSNGQSMHCGGFLIRRNFVLTAAHCAGRSITVTLGAHNITEEEDTWQKLEVIKQFRHPKYNTSTHHHDIMLLKLKEKASLTLAVGTLPFPSQFNFVPPGRMCRIAGWGRTGVLKPGSDTLQEVKLRLMDPQACSHFRSFDHNLQLCVGNPRKTKSSFKGDSGGPLLCAGVAQGIASYGRVDAKPPRVFTRISHYRPWINQILQAN
B11: chymase C22S/P38Q/K40L/F41R/L99M/V138I/F173L/D175R/A190S/V213A/S218V/A226R (enzyme)
chain: IIGGTESKPHSRPYMAYLEIVTSNGQSLRCGGFLIRRNFVLTAAHCAGRSITVTLGAHNITEEEDTWQKLEVIKQFRHPKYNTSTMHHDIMLLKLKEKASLTLAVGTLPFPSQFNFVPPGRMCRIAGWGRTGVLKPGSDTLQEVKLRLMDPQACSHLRRFDHNLQLCVGNPRKTKSSFKGDSGGPLLCAGVAQGIASYGRVDAKPPRVFTRISHYRPWINQILQAN
B12: chymase C22S/P38Q/K40M/F41R/L99N/V138I/F173Y/D175W/A190S/V213A/S218T/A226R (enzyme)
chain: IIGGTESKPHSRPYMAYLEIVTSNGQSMRCGGFLIRRNFVLTAAHCAGRSITVTLGAHNITEEEDTWQKLEVIKQFRHPKYNTSTNHHDIMLLKLKEKASLTLAVGTLPFPSQFNFVPPGRMCRIAGWGRTGVLKPGSDTLQEVKLRLMDPQACSHYRWFDHNLQLCVGNPRKTKSSFKGDSGGPLLCAGVAQGIASYGRTDAKPPRVFTRISHYRPWINQILQAN
B13: chymase C22S/P38Q/K40Q/F41R/L99H/V138I/F173Y/D175S/A190S/V213A/S218V/A226R (enzyme)
chain: IIGGTESKPHSRPYMAYLEIVTSNGQSQRCGGFLIRRNFVLTAAHCAGRSITVTLGAHNITEEEDTWQKLEVIKQFRHPKYNTSTHHHDIMLLKLKEKASLTLAVGTLPFPSQFNFVPPGRMCRIAGWGRTGVLKPGSDTLQEVKLRLMDPQACSHYRSFDHNLQLCVGNPRKTKSSFKGDSGGPLLCAGVAQGIASYGRVDAKPPRVFTRISHYRPWINQILQAN
B14: chymase C22S/P38Q/K40M/F41R/L99W/V138I/F173M/D175H/A190S/V213A/S218T/A226R (enzyme)
chain: IIGGTESKPHSRPYMAYLEIVTSNGQSMRCGGFLIRRNFVLTAAHCAGRSITVTLGAHNITEEEDTWQKLEVIKQFRHPKYNTSTWHHDIMLLKLKEKASLTLAVGTLPFPSQFNFVPPGRMCRIAGWGRTGVLKPGSDTLQEVKLRLMDPQACSHMRHFDHNLQLCVGNPRKTKSSFKGDSGGPLLCAGVAQGIASYGRTDAKPPRVFTRISHYRPWINQILQAN
B15: chymase C22S/P38Q/K40L/F41R/L99Y/V138I/F173Y/D175N/A190S/V213A/S218V/A226R (enzyme)
chain: IIGGTESKPHSRPYMAYLEIVTSNGQSLRCGGFLIRRNFVLTAAHCAGRSITVTLGAHNITEEEDTWQKLEVIKQFRHPKYNTSTYHHDIMLLKLKEKASLTLAVGTLPFPSQFNFVPPGRMCRIAGWGRTGVLKPGSDTLQEVKLRLMDPQACSHYRNFDHNLQLCVGNPRKTKSSFKGDSGGPLLCAGVAQGIASYGRVDAKPPRVFTRISHYRPWINQILQAN
B16: chymase C22S/P38Q/K40M/F41R/L99Y/V138I/F173L/D175S/A190S/V213A/S218T/A226R (enzyme)
chain: IIGGTESKPHSRPYMAYLEIVTSNGQSMRCGGFLIRRNFVLTAAHCAGRSITVTLGAHNITEEEDTWQKLEVIKQFRHPKYNTSTYHHDIMLLKLKEKASLTLAVGTLPFPSQFNFVPPGRMCRIAGWGRTGVLKPGSDTLQEVKLRLMDPQACSHLRSFDHNLQLCVGNPRKTKSSFKGDSGGPLLCAGVAQGIASYGRTDAKPPRVFTRISHYRPWINQILQAN
B17: chymase C22S/P38Q/K40V/F41R/V138I/F173S/D175N/A190S/V213A/S218I/A226R (enzyme)
chain: IIGGTESKPHSRPYMAYLEIVTSNGQSVRCGGFLIRRNFVLTAAHCAGRSITVTLGAHNITEEEDTWQKLEVIKQFRHPKYNTSTLHHDIMLLKLKEKASLTLAVGTLPFPSQFNFVPPGRMCRIAGWGRTGVLKPGSDTLQEVKLRLMDPQACSHSRNFDHNLQLCVGNPRKTKSSFKGDSGGPLLCAGVAQGIASYGRIDAKPPRVFTRISHYRPWINQILQAN
B18: chymase C22S/P38Q/K40M/F41K/L99W/V138I/F173M/A190S/V213A/S218N/A226R (enzyme)
chain: IIGGTESKPHSRPYMAYLEIVTSNGQSMKCGGFLIRRNFVLTAAHCAGRSITVTLGAHNITEEEDTWQKLEVIKQFRHPKYNTSTWHHDIMLLKLKEKASLTLAVGTLPFPSQFNFVPPGRMCRIAGWGRTGVLKPGSDTLQEVKLRLMDPQACSHMRDFDHNLQLCVGNPRKTKSSFKGDSGGPLLCAGVAQGIASYGRNDAKPPRVFTRISHYRPWINQILQAN
B19: chymase C22S/P38Q/K40L/F41R/V138I/F173L/D175R/A190S/V213A/S218V/A226R (enzyme)
chain: IIGGTESKPHSRPYMAYLEIVTSNGQSLRCGGFLIRRNFVLTAAHCAGRSITVTLGAHNITEEEDTWQKLEVIKQFRHPKYNTSTLHHDIMLLKLKEKASLTLAVGTLPFPSQFNFVPPGRMCRIAGWGRTGVLKPGSDTLQEVKLRLMDPQACSHLRRFDHNLQLCVGNPRKTKSSFKGDSGGPLLCAGVAQGIASYGRVDAKPPRVFTRISHYRPWINQILQAN
B20: chymase C22S/P38Q/K40M/F41R/L99N/V138I/F173Y/D175F/A190S/V213A/S218V/A226R (enzyme)
chain: IIGGTESKPHSRPYMAYLEIVTSNGQSMRCGGFLIRRNFVLTAAHCAGRSITVTLGAHNITEEEDTWQKLEVIKQFRHPKYNTSTNHHDIMLLKLKEKASLTLAVGTLPFPSQFNFVPPGRMCRIAGWGRTGVLKPGSDTLQEVKLRLMDPQACSHYRFFDHNLQLCVGNPRKTKSSFKGDSGGPLLCAGVAQGIASYGRVDAKPPRVFTRISHYRPWINQILQAN
B21: chymase C22S/P38Q/K40M/F41R/L99S/V138I/F173Y/D175N/A190S/V213A/S218V/A226R (enzyme)
chain: IIGGTESKPHSRPYMAYLEIVTSNGQSMRCGGFLIRRNFVLTAAHCAGRSITVTLGAHNITEEEDTWQKLEVIKQFRHPKYNTSTSHHDIMLLKLKEKASLTLAVGTLPFPSQFNFVPPGRMCRIAGWGRTGVLKPGSDTLQEVKLRLMDPQACSHYRNFDHNLQLCVGNPRKTKSSFKGDSGGPLLCAGVAQGIASYGRVDAKPPRVFTRISHYRPWINQILQAN

The target of the test is Human Factor B (human) (UniProt P00751). Description: cell-based or functional assay.
Sequence of Human Factor B (human) (P00751 26-764 limits assumed): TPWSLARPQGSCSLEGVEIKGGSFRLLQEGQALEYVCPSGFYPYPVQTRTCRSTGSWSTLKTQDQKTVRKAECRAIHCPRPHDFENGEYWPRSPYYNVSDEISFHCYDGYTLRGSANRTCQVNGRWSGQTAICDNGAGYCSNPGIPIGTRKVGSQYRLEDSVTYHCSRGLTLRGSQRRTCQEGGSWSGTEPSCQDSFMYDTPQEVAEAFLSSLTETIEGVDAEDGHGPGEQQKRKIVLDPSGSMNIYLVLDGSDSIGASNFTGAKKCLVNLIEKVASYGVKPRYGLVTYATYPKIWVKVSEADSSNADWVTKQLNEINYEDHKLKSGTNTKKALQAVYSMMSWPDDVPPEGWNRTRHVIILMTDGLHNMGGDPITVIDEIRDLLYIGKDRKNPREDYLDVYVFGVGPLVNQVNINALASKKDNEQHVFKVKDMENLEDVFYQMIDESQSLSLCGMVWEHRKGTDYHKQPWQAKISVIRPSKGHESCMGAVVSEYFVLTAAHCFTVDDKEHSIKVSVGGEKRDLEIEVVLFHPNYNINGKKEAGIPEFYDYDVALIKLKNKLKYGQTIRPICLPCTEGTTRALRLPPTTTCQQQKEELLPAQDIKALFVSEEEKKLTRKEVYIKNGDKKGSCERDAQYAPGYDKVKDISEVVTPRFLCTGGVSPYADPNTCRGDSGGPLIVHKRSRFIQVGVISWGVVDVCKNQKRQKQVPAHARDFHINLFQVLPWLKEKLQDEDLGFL
B1 gave a fB Cleavage EC50 of 639 nM. The molecule B2 came in with a fB Cleavage EC50 of 139 nM.

As to B3, the fB Cleavage EC50 was 631 nM. In turn, B4 yielded a fB Cleavage EC50 of 882 nM. The molecule B5 returned a fB Cleavage EC50 of 121 nM.

For B6, the fB Cleavage EC50 was 203 nM. B7 came in with a fB Cleavage EC50 of 92.9 nM. B8 had a fB Cleavage EC50 of 301 nM. The figure for B9 is 100 nM; for B10 it is 277 nM.

The molecule B11 came in with a fB Cleavage EC50 of 213 nM. As to B12, the fB Cleavage EC50 is 500 nM. B13: the fB Cleavage EC50 stood at 150 nM. Next, B14: 414 nM; B15: 57 nM; B16: 1230 nM. B17 came in with a fB Cleavage EC50 of 717 nM. B18: the fB Cleavage EC50 turned out to be 956 nM. Molecule B19 returned a fB Cleavage EC50 of 113 nM.

The molecule B20 gave a fB Cleavage EC50 of 193 nM. B21 gave a fB Cleavage EC50 of 472 nM.
